According to PMC11564011 (Heliyon, 2024):

Columns and labels:
[1] = biological target: mFc-tag CD47 antigen (human) (UniProt Q08722); assay: BLI
[2] = biological target: mFc-tag CD47 antigen (human) (UniProt Q08722); assay: ELISA
[3] = biological target: T1, PD-L1 on CD47+/PD-L1+ tumor cells (RKO, ES-2, HT-1080, HCC827) (human (endogenous in RKO, ES-2, …, UniProt Q9NZQ7)); assay: flow cytometry on cells
[4] = biological target: T2, PD-L1 on CHO-PD-L1 cells (human, UniProt Q9NZQ7); assay: flow cytometry on cells
T2 sequence (Q9NZQ7 19-290): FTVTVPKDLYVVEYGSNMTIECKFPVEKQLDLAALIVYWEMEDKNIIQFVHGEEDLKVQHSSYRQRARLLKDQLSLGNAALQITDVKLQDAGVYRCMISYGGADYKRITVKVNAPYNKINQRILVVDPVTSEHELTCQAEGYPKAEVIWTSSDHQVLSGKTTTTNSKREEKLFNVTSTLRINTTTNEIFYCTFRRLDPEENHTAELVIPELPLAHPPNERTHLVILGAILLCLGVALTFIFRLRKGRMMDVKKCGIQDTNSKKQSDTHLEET

[5] = biological target: T2, PD-L1 on CHO-PD-L1 cells; assay: flow cytometry on cells; remark: listed apart in the source
[6] = biological target: T3, His-tag PD-L1 antigen (Homo sapiens, UniProt Q9NZQ7); assay: BLI
T3 sequence (Q9NZQ7 19-238): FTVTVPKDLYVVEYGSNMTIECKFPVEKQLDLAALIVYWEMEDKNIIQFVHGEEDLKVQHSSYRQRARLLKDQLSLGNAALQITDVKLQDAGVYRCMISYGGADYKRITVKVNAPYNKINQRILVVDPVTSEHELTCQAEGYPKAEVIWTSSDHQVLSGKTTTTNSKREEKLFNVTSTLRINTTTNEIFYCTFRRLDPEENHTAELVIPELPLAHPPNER

[7] = biological target: T1, PD-L1 on CD47+/PD-L1+ tumor cells (RKO, …); assay: flow cytometry on cells; remark: listed apart in the source
[8] = biological target: T3, His-tag PD-L1 antigen; assay: ELISA

Chain of mFc-tag CD47 antigen (human) (Q08722 19-323): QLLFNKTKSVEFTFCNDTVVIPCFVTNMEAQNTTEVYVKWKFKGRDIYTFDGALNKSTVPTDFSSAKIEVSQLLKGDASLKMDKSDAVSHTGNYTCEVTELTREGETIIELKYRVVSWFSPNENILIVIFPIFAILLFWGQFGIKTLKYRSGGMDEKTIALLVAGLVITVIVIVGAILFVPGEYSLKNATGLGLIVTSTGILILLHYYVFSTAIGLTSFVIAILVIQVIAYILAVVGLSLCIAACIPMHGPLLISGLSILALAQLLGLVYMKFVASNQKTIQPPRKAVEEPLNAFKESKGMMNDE
T1 sequence (Q9NZQ7 19-290): as the sequence (Q9NZQ7 19-290) above

B1: IMM2520 (bispecific antibody, V domains shown)
VH: QVQLVQSGAEVKKPGASVKVSCKASGYTFTSNWMHWVRQAPGQGLEWMGMIHPNSGSSNYNEKFKSRVTMTRDTSTSTVYMELSSLRSEDTAVYYCARSYYGSSPYYFDYWGQGTLVTVSS
VL: DIQMTQSPSSLSASVGDRVTITCRASQDIINYLNWYQQKPGKAPKLLIYYTSRLHSGVPSRFSGSGSGTDFTFTISSLQPEDIATYYCQQGDTLPWTFGQGTKVEIK
Kd [1]: 2.49 nM
EC50 [2]: 0.079 nM
IC50 [3]: 0.0123 nM
IC50 [4]: 0.121 nM
EC50 [5]: 0.845 nM
Kd [6]: 0.576 nM
EC50 [7]: 0.145 nM
EC50 [8]: 0.456 nM
